Results published in PMC4661472.

Columns and labels:
[1] = target: tapasin (human), wild type, in HeLa cells (UniProt O15533); assay: co-immunoprecipitation with immunoblot densitometry; conditions: transient transfection of HeLa cells; IP via C-terminal c-Myc tag of TMD0TAP1; three independent experiments
[2] = target: TMD0^TAP1 V67C single-cysteine mutant (M553) (human); assay: cross-linking; crude membranes of M553 cells (tapasin-negative) transfected with single-Cys TMD0^TAP1 without tapasin; 1 mM Cu2+(phenanthroline)3, 10 min, 37 °C; non-reducing SDS-PAGE and immunoblot
[3] = target: TMD0^TAP1 L70C single-cysteine mutant (M553) (human); assay: as above
[4] = target: TMD0^TAP1 V34C single-cysteine mutant (M553) (human); assay: as above
[5] = target: TMD0^TAP1 W69C single-cysteine mutant (M553) (human); assay: as above
[6] = target: TMD0^TAP1 L68C single-cysteine mutant (M553) (human); assay: as above
[7] = target: TMD0^TAP1 L107C single-cysteine mutant (M553) (human); assay: as above
[8] = target: TMD0^TAP1 W33C single-cysteine mutant (M553) (human); assay: as above

Sequence of UniProt O15533 (O15533 21-448): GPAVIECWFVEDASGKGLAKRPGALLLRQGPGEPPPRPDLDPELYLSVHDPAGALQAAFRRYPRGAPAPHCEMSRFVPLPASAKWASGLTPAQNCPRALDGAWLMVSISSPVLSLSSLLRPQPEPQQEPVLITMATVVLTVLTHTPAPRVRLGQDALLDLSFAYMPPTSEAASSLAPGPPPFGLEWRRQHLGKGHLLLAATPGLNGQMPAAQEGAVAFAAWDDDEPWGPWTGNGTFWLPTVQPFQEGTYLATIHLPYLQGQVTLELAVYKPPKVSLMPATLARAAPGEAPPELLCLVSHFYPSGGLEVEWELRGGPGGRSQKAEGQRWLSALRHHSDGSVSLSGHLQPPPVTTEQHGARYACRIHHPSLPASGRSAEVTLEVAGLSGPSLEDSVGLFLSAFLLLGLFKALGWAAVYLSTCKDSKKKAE

| Substance | response [1] | further results |
| --- | --- | --- |
| TMD0^TAP1, parent of the single-cysteine mutants (Cys-less TAP background) V67C | 19% |  |
| TMD0^TAP1 V67C single-cysteine mutant (M553) (domain or fragment) |  | stoichiometry N [2]: 2 |
| TMD0^TAP1 L70C single-cysteine mutant (M553) (domain or fragment) |  | stoichiometry N [3]: 2 |
| TMD0^TAP1, parent of the single-cysteine mutants (Cys-less TAP background) L70C | 27% |  |
| TMD0^TAP1, parent of the single-cysteine mutants (Cys-less TAP background) L107C | 46% |  |
| TMD0^TAP1 V34C single-cysteine mutant (M553) (domain or fragment) |  | stoichiometry N [4]: 2 |
| TMD0^TAP1, parent of the single-cysteine mutants (Cys-less TAP background) L105C | 26% |  |
| TMD0^TAP1 W69C single-cysteine mutant (M553) (domain or fragment) |  | stoichiometry N [5]: 2 |
| TMD0^TAP1 L68C single-cysteine mutant (M553) (domain or fragment) |  | stoichiometry N [6]: 2 |
| TMD0^TAP1 L107C single-cysteine mutant (M553) (domain or fragment) |  | stoichiometry N [7]: 2 |
| TMD0^TAP1, parent of the single-cysteine mutants (Cys-less TAP background) V34C | 17% |  |
| TMD0^TAP1, parent of the single-cysteine mutants (Cys-less TAP background) A150C | 25% |  |
| TMD0^TAP1 W33C single-cysteine mutant (M553) (domain or fragment) |  | stoichiometry N [8]: 2 |
| TMD0^TAP1, parent of the single-cysteine mutants (Cys-less TAP background) W33C | 9% |  |

Continued, in another order:

| response [1] | Substance | further results |
| --- | --- | --- |
| 29% | TMD0^TAP1, parent of the single-cysteine mutants (Cys-less TAP background) P108C |  |
| 51% | TMD0^TAP1, parent of the single-cysteine mutants (Cys-less TAP background) L68C |  |
| 42% | TMD0^TAP1, parent of the single-cysteine mutants (Cys-less TAP background) A106C |  |
| 86% | TMD0^TAP1, parent of the single-cysteine mutants (Cys-less TAP background) P149C |  |
| 47% | TMD0^TAP1, parent of the single-cysteine mutants (Cys-less TAP background) A151C |  |
| 12% | TMD0^TAP1, parent of the single-cysteine mutants (Cys-less TAP background) L148C |  |
| 22% | TMD0^TAP1, parent of the single-cysteine mutants (Cys-less TAP background) A31C |  |
| 81% | TMD0^TAP1, parent of the single-cysteine mutants (Cys-less TAP background) W69C |  |
| 0% | TMD0^TAP1, parent of the single-cysteine mutants (Cys-less TAP background) D32C |  |
